{"source": "patent US20030055006A1", "about": "“Combinations and compositions which interfere with VEGF/VEGF and angiopoietin/tie receptor function and their use” (Schering Aktiengesellschaft, priority 2000, published 2003)", "molecules": {"B1": {"name": "sTie2: extracellular ligand-neutralizing domain of human Tie2 receptor tyrosine kinase, overexpressed by transfected A375v cells (protein, UniProt Q02763 23-748, looked up)", "extracellular domain": "AMDLILINSLPLVSDAETSLTCIASGWRPHEPITIGRDFEALMNQHQDPLEVTQDVTREWAKKVVWKREKASKINGAYFCEGRVRGEAIRIRTMKMRQQASFLPATLTMTVDKGDNVNISFKKVLIKEEDAVIYKNGSFIHSVPRHEVPDILEVHLPHAQPQDAGVYSARYIGGNLFTSAFTRLIVRRCEAQKWGPECNHLCTACMNNGVCHEDTGECICPPGFMGRTCEKACELHTFGRTCKERCSGQEGCKSYVFCLPDPYGCSCATGWKGLQCNEACHPGFYGPDCKLRCSCNNGEMCDRFQGCLCSPGWQGLQCEREGIQRMTPKIVDLPDHIEVNSGKFNPICKASGWPLPTNEEMTLVKPDGTVLHPKDFNHTDHFSVAIFTIHRILPPDSGVWVCSVNTVAGMVEKPFNISVKVLPKPLNAPNVIDTGHNFAVINISSEPYFGDGPIKSKKLLYKPVNHYEAWQHIQVTNEIVTLNYLEPRTEYELCVQLVRRGEGGEGHPGPVRRFTTASIGLPPPRGLNLLPKSQTTLNLTWQPIFPSSEDDFYVEVERRSVQKSDQQNIKVPGNLTSVLLNNLHPREQYVVRARVNTKAQGEWSEDLTAWTLSDILPPQPENIKISNITHSSAVISWTILDGYSISSITIRYKVQGKNEDQHVDVKIKNATITQYQLKGLEPETAYQVDIFAENNIGSSNPAFSHELVTLPESQAPADLGGGKMLL", "modifications": "extracellular domain", "notes": "extracellular ligand-neutralizing domain of human Tie2 receptor tyrosine kinase, overexpressed by transfected A375v cells"}}, "key": {"[1]": {"tested_on": "Tumors derived from A375v/pCEP cells", "assay": "Tumor growth in A375v xenograft, Example 4 (VEGF receptor kinase inhibitor and/or scFv-tTF conjugate)", "type": "in vivo, nude mice", "settings": "kinase inhibitor 50 mg/kg daily oral; scFv-tTF conjugate 20 μg i.v. on day 0 and day 4; untreated control approx. 1000 mm^3", "method": "(§1) Tumors derived from A375v/pCEP cells were induced in nude mice as described in example 1. Animals receiving compound I were treated for up to 28 days with daily oral doses of 50 mg/kg of the VEGF receptor tyrosine kinase inhibitor (4-Chlorophenyl)[4-(4-pyridylmethyl)-phthalazin-1-yl]ammonium hydrogen succinate (Wood et al., Cancer Res. 60, 2178-2189, 2000). Compound II consists of a single chain antibody (scFv) specifically recognizing the human VEGF-A/VEGF receptor I complex (WO 99/19361) which was expressed in E. coli and conjugated to coagulation-inducing recombinant human truncated tissue factor (tTF) by methods descibed by Ran et al. (Cancer Res. 58, 46464653, 1998). When tumors reached a size of approx. 200 mm^3 animals receiving compound II were treated on day 0 and on day 4 with intravenous doses of 20 μg of the scFv-tTF conjugate. Various modes of treatment are described in Table 4. Animals were sacrificed for ethical reasons when tumors of group 1 exceeded a volume of approx. 1000 mm^3. Tumor growth was determined by caliper measurement of the largest diameter and its perpendicular."}, "[2]": {"tested_on": "Tumors derived from A375v/pCEP cells", "assay": "Tumor growth in A375v xenograft, Example 6 (VEGF receptor kinase inhibitor and/or L19 scFv-tTF)", "type": "in vivo, nude mice", "settings": "kinase inhibitor 50 mg/kg daily oral; L19 scFv-tTF single i.v. dose of 20 μg; untreated control approx. 1000 mm^3", "method": "Tumors derived from A375v/pCEP cells were induced in nude mice as described in example 1. Animals receiving compound I were treated for up to 28 days with daily oral doses of 50 mg/kg of the VEGF receptor tyrosine kinase inhibitor (4-Chlorophenyl)[4-(4-pyridylmethyl)-phthalazin-1-yl]ammonium hydrogen succinate (Wood et al., Cancer Res. 60, 2178-2189, 2000). Compound II consists of L19 scFv-tTF fusion protein as described in example 5. When tumors reached a size of approx. 200 mm^3 animals receiving compound II were treated with a single intravenous dose of 20 μg of L19 scFv-tTF in 200 μl saline. Various modes of treatment are described in Table 6. Animals were sacrificed for ethical reasons when tumors of -group 1 exceeded a volume of approx. 1000 mm^3. Tumor growth was determined by caliper measurement of the largest diameter and its perpendicular."}, "[3]": {"tested_on": "A375v human melanoma xenograft (A375v/pCEP, A375v/sTie2)", "assay": "Tumor growth in A375v human melanoma xenograft model, Example 1 (VEGF receptor kinase inhibitor and/or sTie2)", "type": "in vivo, Swiss nu/nu mice", "settings": "s.c. A375v xenograft; kinase inhibitor 50 mg/kg daily oral; sTie2 expressed by tumor cells; untreated control 24 days", "method": "Human melanoma cell line A375v was stably transfected to overexpress the extracellular ligand-neutralizing domain of human Tie2 receptor tyrosine kinase (sTie2; compound II) (Siemeister et al., Cancer Res. 59, 3185-3191, 1999). For control, A375v cells were stably transfected with the empty expression vector (A375v/pCEP). Swiss nu/nu mice were s.c. injected with 1×10^6 transfected A375v/sTie2 or A375v/pCEP tumor cells, respectively. Animals receiving compound I were treated for up to […] with daily oral doses of 50 mg/kg of the VEGF receptor tyrosine kinase inhibitor (4-Chlorophenyl)[4-(4-pyridylmethyl)-phthalazin-1-yl]ammonium hydrogen succinate (Wood et al., Cancer Res. 60, 2178-2189, 2000). Various modes of treatment are described in Table 1. Tumor growth was determined by caliper measurement of the largest diameter and its perpendicular."}, "[4]": {"tested_on": "Tumors derived from A375v/sTie2 cells and from A375v/pCEP cells", "assay": "Tumor growth in A375v xenograft, Example 2 (mAb 4301-42-35 and/or sTie2)", "type": "in vivo, nude mice", "settings": "sTie2 expressed by tumor cells; untreated control approx. 1000 mm^3", "method": "Tumors derived from A375v/sTie2 cells and from A375v/pCEP cells were induced in nude mice as described in example 1. Animals receiving compound I were treated twice weekly over a period of time of 4 weeks with intraperitoneal doses of 200 μg of the VEGF-A-neutralizing monoclonal antibody (mAb) 4301-42-35 (Schlaeppi et al., J. Cancer Res. Clin. Oncol. 125, 336-342, 1999). Various modes of treatment are descibed in Table 2. Animals were sacrificed for ethical reasons when tumors of group 1 exceeded a volume of approx. 1000 mm^3. Tumor growth was determined by caliper measurement of the largest diameter and its perpendicular."}, "[5]": {"tested_on": "Tumors derived from A375v/sTie2 cells and from A375v/pCEP cells", "assay": "Tumor growth in A375v xenograft, Example 5 (L19 scFv-tTF and/or sTie2)", "type": "in vivo, nude mice", "settings": "sTie2 expressed by tumor cells; untreated control approx. 1000 mm^3", "excerpt": "Tumors derived from A375v/sTie2 cells and from A375v/pCEP cells were induced in nude mice as described in example 1. A fusion protein (L19 scFv-tTF) consisting of L19 single chain antibody specifically recognizing the oncofoetal ED-B domain of fibronectin and the extracellular domain of tissue factor was expressed in E. coli as described by Nilsson et al. (Nat. Med., in press). Further, L19 scFv-tTF data have been represented by D. Neri and F. Nilsson (Meeting “Advances in the application of monoclonal antibodies in clinical oncology”, Samos, Greece, 31. May-2. June 2000). When tumors reached a size of approx. 200 mm^3 animals receiving compound I were treated with a single intravenous dose of 20 μg of L19 scFv-tTF in 200 μl saline. Various modes of treatment are described in Table 5. Animals were sacrificed for ethical reasons when tumors of group 1 exceeded a volume of approx. 1000 mm^3. Tumor growth was determined by caliper measurement of the largest diameter and its perpendicular."}, "[6]": {"tested_on": "Tumors derived from A375v/sTie2 cells and from A375v/pCEP cells", "assay": "Tumor growth in A375v xenograft, Example 3 (scFv-tTF conjugate and/or sTie2)", "type": "in vivo, nude mice", "settings": "sTie2 expressed by tumor cells; untreated control approx. 1000 mm^3", "method": "as §1, with “derived from A375v/sTie2 cells and” for “derived”, “A” for “Animals receiving compound I were treated for up to 28 days with daily oral doses of 50 mg/kg of the VEGF receptor tyrosine kinase inhibitor (4-Chlorophenyl)[4-(4-pyridylmethyl)-phthalazin-1-yl]ammonium hydrogen succinate (Wood et al., Cancer Res. 60, 2178-2189, 2000). Compound II consists of a”, “99/19361)” for “99/19361) which”, “4646-4653,” for “46464653,”, “I” for “II”, “3.” for “4.”"}}}
{"molecule": "Clc1ccc(Nc2nnc(Cc3ccncc3)c3ccccc23)cc1.O=C(O)CCC(=O)O", "note": "[(4-Chlorophenyl)[4-(4-pyridylmethyl)-phthalazin-1-yl]ammonium hydrogen succinate]", "values": [{"measurement": "tumor volume within 28 days", "setting": "[1]", "value": "approx. 550 mm^3"}, {"measurement": "tumor volume within 28 days", "setting": "[2]", "value": "approx. 550 mm^3"}, {"measurement": "time for tumors to grow to a size of approx. 250 mm^2 (mean area)", "setting": "[3]", "value": 31, "unit": "days"}]}
{"molecule": "B1", "values": [{"measurement": "tumor volume within 28 day", "setting": "[4]", "value": "approx. 600 mm^2"}, {"measurement": "tumor volume within 28 day", "setting": "[5]", "value": "approx. 600 mm^2"}, {"measurement": "time for tumors to grow to a size of approx. 250 mm^2 (mean area)", "setting": "[3]", "value": 31, "unit": "days"}, {"measurement": "tumor volume within 28 day", "setting": "[6]", "value": "approx. 600 mm^2"}]}
